Source: patent US8278037B2, “N-acetylgalactosamine transferases and nucleic acids encoding the same” (National Institute of Advanced Industrial Science and …, priority 2002, dated 2012)

How the values were obtained:
[1] = tested on: glycodelin in CHO cells; experiment: N-glycan structures on glycodelin from NGalNAc-T gene transfected CHO cells, WFA lectin blotting; format: cell-based; settings: gene co-transfected with glycodelin gene in CHO cells, 48 hr culture medium
Description: As shown above, both NGalNAc-T1 and -T2 could synthesize LacdiNAc structures on mono- and oligosaccharide acceptors. Actually, it is known that the LacdiNAc structures exist in N-glycans on some glycoproteins. Therefore we examined the ability of NGalNAc-T1 to construct LacdiNAc on glycodelin, which is one of major glycoproteins carrying LacdiNAc structures, in vivo. CHO cells were employed for this purpose, because glycodelin produced in CHO cells is devoid of any of the LacdiNAc-based chains.
The glycodelin expression vector was transfected into CHO cells expressing NGalNAc-T1 or -T2 gene and the culture medium was collected from 48 hr-culture medium. Glycodelin was harvested with WFA affinity column from the culture medium. The harvested glycodelin was applied to SDS-PAGE and used for lectin blotting with WFA.

[2] = tested on: asialo/agalacto-fetal calf fetuin; experiment: LacdiNAc synthesizing activity toward asialo/agalacto-fetal calf fetuin, WFA lectin blot; format: biochemical; settings: 37° C. for 16 hr, HRP conjugated WFA lectin detection
Protocol: Fetal calf fetuin (FCF), neuraminidase, β1-4 galactosidase and glycopeptidase F were purchased from Sigma, Nacalai Tesque (Kyoto, Japan), Calbiochem and Takara, respectively. Asialo/agalacto-FCF was prepared from 200 μg of FCF by incubating with 4 μU of neuraminidase and 12 μU of β1,4-galactosidase at 37° C. for 16 hr. The transfer of GalNAc by GalNAc-T2 to glycoprotein was performed in 20 μl of a standard reaction mixture containing 50 μg of asialo/agalacto-FCF produced by glycosidase treatment. After the incubation at 37° C. for 16 hr, each 5 μl of the reaction mixture was digested with glycopeptidase F (GPF) according to manufacture's instruction. For detection of transferred GalNAc, horseradish peroxidase (HRP) conjugated lectin, Wisteria floribunda agglutinin (WFA) (EY Laboratories, San Mateo, Calif.), was used. A 1 μl of reaction mixtures subjected to 12.5% SDS-PAGE were transferred to nitrocellulose membrane (Schleicher & Schuell, Keene, N.H.) and stained with 0.1% HRP conjugated WFA lectin. The signals were detected using enhanced chemiluminescence (ECL) and Hyperfilm ECL (Amersham Biosciences).

[3] = biological target: T1, NGalNAc-T1 (Homo sapiens, UniProt Q76KP1); experiment: Study of optimum pH in enzymatic activity; format: biochemical; settings: for (A) − (B): blank 263.21 subtracted
T1 sequence (Q76KP1 62-1039): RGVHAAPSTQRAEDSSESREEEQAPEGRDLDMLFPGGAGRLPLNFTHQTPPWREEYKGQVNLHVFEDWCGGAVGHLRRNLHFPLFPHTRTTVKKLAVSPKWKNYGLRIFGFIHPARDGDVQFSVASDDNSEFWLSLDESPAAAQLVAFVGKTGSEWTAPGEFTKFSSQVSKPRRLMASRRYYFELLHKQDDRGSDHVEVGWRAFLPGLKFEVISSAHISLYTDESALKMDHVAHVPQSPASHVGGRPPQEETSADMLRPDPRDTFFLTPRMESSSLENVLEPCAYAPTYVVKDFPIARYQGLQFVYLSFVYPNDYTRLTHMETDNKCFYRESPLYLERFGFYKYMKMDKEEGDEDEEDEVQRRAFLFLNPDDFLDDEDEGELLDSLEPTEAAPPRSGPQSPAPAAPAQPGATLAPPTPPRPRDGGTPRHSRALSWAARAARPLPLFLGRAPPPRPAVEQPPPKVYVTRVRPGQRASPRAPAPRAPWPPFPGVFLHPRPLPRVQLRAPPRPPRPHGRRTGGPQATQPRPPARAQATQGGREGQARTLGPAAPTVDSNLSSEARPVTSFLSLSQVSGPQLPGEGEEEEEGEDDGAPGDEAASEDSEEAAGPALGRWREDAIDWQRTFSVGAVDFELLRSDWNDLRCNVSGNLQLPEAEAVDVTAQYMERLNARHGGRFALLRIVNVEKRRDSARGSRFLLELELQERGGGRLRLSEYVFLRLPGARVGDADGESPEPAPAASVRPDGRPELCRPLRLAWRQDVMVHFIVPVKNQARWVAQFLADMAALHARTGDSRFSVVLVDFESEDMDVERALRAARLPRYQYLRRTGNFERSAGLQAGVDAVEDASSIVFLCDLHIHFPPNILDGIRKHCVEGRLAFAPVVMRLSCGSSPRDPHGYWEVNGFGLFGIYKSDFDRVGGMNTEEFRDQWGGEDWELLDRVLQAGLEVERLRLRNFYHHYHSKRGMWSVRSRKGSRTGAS
Description: As described above, it was explained that NGalNAc-T1 and NGalNAc-T2 are glycosyl transferases which transfer GalNAc to GlcNAc. Thereat, the optimum pH of both enzymes was studied. The buffer solutions used are MES (pH 5.5, 6.0, 6.26, 6.5, 6.75), HEPES (pH 6.75, 7.0, 7.4).
In addition, the value (263.21 dpm) of MES (pH 6.75) was adopted as a blank value in the case of a non-enzyme. Further, when pH of HEPES buffer was 7.4 for NGalNAc-T1 and 6.75 for NGalNAc-T2, the highest value was shown. […] Hereinafter, MES (pH 6.5) was used in each of experiments.

pH at which the highest value was shown ([3]; HEPES buffer): 7.4
Incorporation of radioactivity (A) ([3]; HEPES buffer (pH 6.75)): 1685.06 dpm
(A) − (B) ([3]; HEPES buffer (pH 6.75)): 1421.85 dpm
Incorporation of radioactivity (A) ([3]; HEPES buffer (pH 7.0)): 1138.38 dpm
(A) − (B) ([3]; HEPES buffer (pH 7.0)): 875.17 dpm
Incorporation of radioactivity (A) ([3]; HEPES buffer (pH 7.4)): 2587.48 dpm
(A) − (B) ([3]; HEPES buffer (pH 7.4)): 2324.27 dpm
pH at which the activity tends to be higher ([3]; MES buffer): 6.5
Incorporation of radioactivity (A) ([3]; MES buffer (pH 5.5)): 339.76 dpm
(A) − (B) ([3]; MES buffer (pH 5.5)): 76.55 dpm
Incorporation of radioactivity (A) ([3]; MES buffer (pH 6.0)): 321.04 dpm
(A) − (B) ([3]; MES buffer (pH 6.0)): 57.83 dpm
Incorporation of radioactivity (A) ([3]; MES buffer (pH 6.26)): 636.34 dpm
(A) − (B) ([3]; MES buffer (pH 6.26)): 373.13 dpm
Incorporation of radioactivity (A) ([3]; MES buffer (pH 6.5)): 1767.72 dpm
(A) − (B) ([3]; MES buffer (pH 6.5)): 1504.51 dpm
Incorporation of radioactivity (A) ([3]; MES buffer (pH 6.75)): 923.92 dpm
(A) − (B) ([3]; MES buffer (pH 6.75)): 660.71 dpm
B1: NGalNAc-T1: human enzyme (SEQ ID NO: 1) transferring N-acetylgalactosamine to N-acetylglucosamine via β1-4 linkage; tested as FLAG-tagged amino acids 62-1039 (protein, listed as Homo sapiens)
chain: T1 sequence (Q76KP1 62-1039)
modifications: FLAG tag
non-reducing terminal GalNAc on glycodelin [1]: non-reducing terminal GalNAc is detected
transfer of GalNAc to glycoprotein asialo/agalacto-FCF [2]: same as NGalNAc-T2
